Data on two sequences can be found in US9327008B2, “Cell-permeant peptide-based inhibitor of kinases” (Purdue Research Foundation, priority 2008, dated 2016).

Common to all, as to type: biochemical
The target of one assay is T1, c-Kit (Homo sapiens, UniProt P10721).
T1 construct: purchased Millipore (assay service)
Description: Millipore radiometric kinase activity assay, c-Kit (h). As for the experimental part:
(§1) A commercial radiometric assay service (Millipore, Billerica, Mass.) was used to test the specificity and potency of peptides containing a coupled transduction domain and therapeutic domain, hereinafter “complete peptides”). In these assays, if the kinase is not inhibited by an inhibitor peptide, a positively charged substrate is phosphorylated with a radiolabeled phosphate group from an ATP.
(§2) In a final reaction volume of 25 μL, c-Kit (h) (5-10 mU) is incubated with 8 mM MOPS pH 7.0, 0.2 mM EDTA, 10 mM MnCl2, 0.1 mg/mL poly(Glu, Tyr) 4:1, 10 mM MgAcetate and [γ-^33P-ATP] (specific activity approx. 500 cpm/pmol, concentration as required). The reaction is initiated by the addition of the MgATP mix. After incubation for 40 minutes at room temperature, the reaction is stopped by the addition of 5 μL of a 3% phosphoric acid solution. 10 μL of the reaction is then spotted onto a Filtermat A and washed three times for 5 minutes in 75 mM phosphoric acid and once in methanol prior to drying and scintillation counting.
(§3) IC50 values for inhibitor peptides were determined using Millipore's IC50Profiler Express service. The IC50 value was estimated from a 10-point curve of one-half log dilutions. For peptides tested for specificity, the concentration of the peptides that inhibited approximately 95% of MK2 activity was chosen to profile against a battery of kinases related to MK2, cell viability, or human disease from MilliporeKinaseProfiler service. In both assays, compounds were supplied in dimethylsulfoxide (DMSO). Every kinase activity measurement was conducted in duplicate.
(§4) Therapeutic inhibitor peptides were assayed for activity against human kinases related to MK2, cell viability, or human disease. The assays were performed using concentrations of therapeutic inhibitor peptides that yielded 2% to 8% of normal MK2 activity. Error is reported as the standard deviation between 2 samples, and “c” is rat AMPK whereas all other kinases used are human kinases.

Another assay addresses T2, Lck (Homo sapiens, UniProt P06239).
T2 construct: purchased Millipore (assay service)
In words: Millipore radiometric kinase activity assay, Lck (h). The text has this:
A commercial radiometric assay service (Millipore, Billerica, Mass.) was used to test the specificity and potency of peptides containing a coupled transduction domain and therapeutic domain, hereinafter “complete peptides”). In these assays, if the kinase is not inhibited by an inhibitor peptide, a positively charged substrate is phosphorylated with a radiolabeled phosphate group from an ATP. […] The reaction is initiated by the addition of the MgATP mix. […] IC50 values for inhibitor peptides were determined using Millipore's IC50Profiler Express service. The IC50 value was estimated from a 10-point curve of one-half log dilutions. […] In both assays, compounds were supplied in dimethylsulfoxide (DMSO). Every kinase activity measurement was conducted in duplicate. Therapeutic inhibitor peptides were assayed for activity against human kinases related to MK2, cell viability, or human disease. […] Error is reported as the standard deviation between 2 samples, and “c” is rat AMPK whereas all other kinases used are human kinases.

For a further assay, the target named is T3, Pim-1 (Homo sapiens, UniProt P11309).
T3 construct: purchased Millipore (radiometric assay service)
Description: Millipore radiometric kinase activity assay, Pim-1 (h). On the procedure: as §1
as §2, with “Pim-1” for “c-Kit”, “100 μM […] [SEQ ID NO: 59],” for “10 mM MnCl2, 0.1 mg/mL poly(Glu, Tyr) 4:1,”, “P30 filtermat” for “Filtermat A”
as §3, §4

The target in another assay is T4, Ret (Homo sapiens, UniProt P07949).
T4 construct: purchased Millipore (radiometric assay service)
Description: Millipore radiometric kinase activity assay, Ret (h). To be noted: peptide 100 μM. As for the experimental part: as §1
as §2, with “25 μL, Ret (h) (5-10” for “25 μL, c-Kit (h) (5-10”, “mM EDTA, 250 μM […] [SEQ ID NO: 56], 10 mM” for “mM EDTA, 10 mM MnCl2, 0.1 mg/mL poly(Glu, Tyr) 4:1, 10 mM”, “of 5 μl, of a” for “of 5 μL of a”, “onto a P30 filtermat and washed” for “onto a Filtermat A and washed”
IC50 values for inhibitor peptides were determined using Millipore's IC50Profiler Express service. The IC50 value was estimated from a 10-point curve of one-half log dilutions. […]

The next assay concerns the target T5, TrkA (Homo sapiens, UniProt P04629).
T5 construct: purchased Millipore (radiometric assay service)
Description: Millipore radiometric kinase activity assay, TrkA (h). As for the experimental part: as §1
as §2, with “TrkA” for “c-Kit”, “250 μM […] [SEQ ID NO: 56],” for “10 mM MnCl2, 0.1 mg/mL poly(Glu, Tyr) 4:1,”, “P30 filtermat” for “Filtermat A”
as §3, §4

T1 sequence (P10721 26-976): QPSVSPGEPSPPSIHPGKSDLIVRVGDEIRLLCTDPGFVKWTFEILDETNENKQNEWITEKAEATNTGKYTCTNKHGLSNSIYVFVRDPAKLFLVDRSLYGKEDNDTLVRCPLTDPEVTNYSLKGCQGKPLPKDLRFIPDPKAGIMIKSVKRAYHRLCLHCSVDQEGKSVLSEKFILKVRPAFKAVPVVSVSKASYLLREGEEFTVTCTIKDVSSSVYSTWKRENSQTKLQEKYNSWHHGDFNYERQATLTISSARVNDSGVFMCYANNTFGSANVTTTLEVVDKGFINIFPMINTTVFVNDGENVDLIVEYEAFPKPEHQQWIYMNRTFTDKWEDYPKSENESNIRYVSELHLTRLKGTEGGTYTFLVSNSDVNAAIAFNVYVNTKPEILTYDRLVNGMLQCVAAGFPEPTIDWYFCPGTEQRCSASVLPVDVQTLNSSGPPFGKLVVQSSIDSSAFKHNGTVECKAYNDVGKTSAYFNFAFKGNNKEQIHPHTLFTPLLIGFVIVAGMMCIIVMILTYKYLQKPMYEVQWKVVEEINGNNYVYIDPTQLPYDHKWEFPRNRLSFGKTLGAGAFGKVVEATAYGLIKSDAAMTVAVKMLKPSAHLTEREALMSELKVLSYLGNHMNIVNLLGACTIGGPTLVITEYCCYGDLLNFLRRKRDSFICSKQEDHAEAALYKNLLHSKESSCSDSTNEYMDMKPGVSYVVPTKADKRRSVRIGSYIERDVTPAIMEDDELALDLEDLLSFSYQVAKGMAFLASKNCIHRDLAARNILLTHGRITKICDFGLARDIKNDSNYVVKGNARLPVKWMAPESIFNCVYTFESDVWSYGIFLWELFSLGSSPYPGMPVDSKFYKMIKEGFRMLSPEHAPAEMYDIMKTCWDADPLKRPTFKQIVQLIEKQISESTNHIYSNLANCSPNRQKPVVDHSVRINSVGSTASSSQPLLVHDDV
T2 sequence (P06239 whole entry): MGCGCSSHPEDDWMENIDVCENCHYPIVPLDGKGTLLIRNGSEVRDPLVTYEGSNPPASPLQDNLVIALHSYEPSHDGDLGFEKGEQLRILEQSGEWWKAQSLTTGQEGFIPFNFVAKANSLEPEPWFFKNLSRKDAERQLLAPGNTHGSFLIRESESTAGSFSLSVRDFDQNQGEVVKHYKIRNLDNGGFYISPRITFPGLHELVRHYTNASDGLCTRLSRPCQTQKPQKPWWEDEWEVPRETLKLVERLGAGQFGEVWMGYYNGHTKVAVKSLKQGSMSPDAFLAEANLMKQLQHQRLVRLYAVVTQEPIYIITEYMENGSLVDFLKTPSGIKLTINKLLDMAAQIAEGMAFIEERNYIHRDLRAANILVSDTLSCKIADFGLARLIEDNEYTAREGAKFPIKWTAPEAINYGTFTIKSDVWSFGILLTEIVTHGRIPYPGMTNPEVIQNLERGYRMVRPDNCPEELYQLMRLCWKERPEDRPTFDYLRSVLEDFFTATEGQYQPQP
T3 sequence (P11309 whole entry): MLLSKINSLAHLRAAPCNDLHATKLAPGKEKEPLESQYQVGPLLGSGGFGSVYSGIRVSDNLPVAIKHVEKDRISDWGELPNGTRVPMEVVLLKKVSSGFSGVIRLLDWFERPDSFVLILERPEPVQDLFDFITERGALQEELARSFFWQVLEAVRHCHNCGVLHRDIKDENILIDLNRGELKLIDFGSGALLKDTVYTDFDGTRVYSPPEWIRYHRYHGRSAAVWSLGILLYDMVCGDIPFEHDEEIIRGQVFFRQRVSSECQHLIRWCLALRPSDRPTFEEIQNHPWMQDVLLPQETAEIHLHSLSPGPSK
T5 sequence (P04629 33-796): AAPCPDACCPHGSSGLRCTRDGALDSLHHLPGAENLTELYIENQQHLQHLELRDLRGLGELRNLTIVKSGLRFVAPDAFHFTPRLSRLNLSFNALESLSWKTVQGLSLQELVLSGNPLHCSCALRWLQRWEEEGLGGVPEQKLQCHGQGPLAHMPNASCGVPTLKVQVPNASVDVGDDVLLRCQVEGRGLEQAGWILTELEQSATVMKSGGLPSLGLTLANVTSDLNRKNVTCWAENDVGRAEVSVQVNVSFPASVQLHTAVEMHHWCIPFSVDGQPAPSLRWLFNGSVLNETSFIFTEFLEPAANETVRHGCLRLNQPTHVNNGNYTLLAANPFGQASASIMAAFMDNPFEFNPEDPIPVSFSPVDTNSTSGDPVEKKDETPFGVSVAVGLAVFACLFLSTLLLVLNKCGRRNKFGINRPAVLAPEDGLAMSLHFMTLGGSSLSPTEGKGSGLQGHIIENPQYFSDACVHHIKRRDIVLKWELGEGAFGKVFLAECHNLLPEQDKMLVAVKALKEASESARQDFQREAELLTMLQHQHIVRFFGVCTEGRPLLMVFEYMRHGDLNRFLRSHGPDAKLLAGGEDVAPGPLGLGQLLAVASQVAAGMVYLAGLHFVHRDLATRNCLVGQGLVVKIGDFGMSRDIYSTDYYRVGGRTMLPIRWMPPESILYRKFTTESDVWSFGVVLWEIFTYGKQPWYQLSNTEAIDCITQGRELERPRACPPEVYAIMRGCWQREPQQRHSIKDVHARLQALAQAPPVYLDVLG
T4 sequence (P07949 29-1114): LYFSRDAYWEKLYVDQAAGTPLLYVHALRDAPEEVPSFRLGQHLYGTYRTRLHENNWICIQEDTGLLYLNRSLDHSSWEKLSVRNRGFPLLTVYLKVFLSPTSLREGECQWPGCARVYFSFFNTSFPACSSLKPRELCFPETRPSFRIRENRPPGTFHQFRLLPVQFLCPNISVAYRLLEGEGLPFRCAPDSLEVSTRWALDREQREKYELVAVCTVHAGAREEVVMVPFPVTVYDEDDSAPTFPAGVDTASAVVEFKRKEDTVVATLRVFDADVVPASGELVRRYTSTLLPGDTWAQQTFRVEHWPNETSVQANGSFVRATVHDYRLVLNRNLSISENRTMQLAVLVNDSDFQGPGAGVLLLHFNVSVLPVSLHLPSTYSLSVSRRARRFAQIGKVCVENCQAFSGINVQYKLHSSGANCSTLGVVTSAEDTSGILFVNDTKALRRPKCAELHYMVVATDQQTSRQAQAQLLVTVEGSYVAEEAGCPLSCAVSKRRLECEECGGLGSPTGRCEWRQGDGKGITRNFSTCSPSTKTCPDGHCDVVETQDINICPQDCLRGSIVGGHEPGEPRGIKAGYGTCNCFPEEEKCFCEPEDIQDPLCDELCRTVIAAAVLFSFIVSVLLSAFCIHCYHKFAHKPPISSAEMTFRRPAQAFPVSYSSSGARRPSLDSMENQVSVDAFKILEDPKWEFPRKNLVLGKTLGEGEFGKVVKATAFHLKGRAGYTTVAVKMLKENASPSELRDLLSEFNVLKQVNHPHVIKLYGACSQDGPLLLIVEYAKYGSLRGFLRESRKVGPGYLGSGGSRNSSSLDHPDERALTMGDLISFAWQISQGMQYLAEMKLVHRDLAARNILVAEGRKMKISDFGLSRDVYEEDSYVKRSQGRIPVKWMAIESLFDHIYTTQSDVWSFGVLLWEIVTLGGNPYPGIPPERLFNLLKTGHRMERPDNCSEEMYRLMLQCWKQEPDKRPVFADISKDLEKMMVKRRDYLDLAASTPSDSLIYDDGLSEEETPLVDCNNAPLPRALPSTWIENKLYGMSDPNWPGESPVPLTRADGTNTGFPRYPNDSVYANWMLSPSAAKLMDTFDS

As for KAFAKLAARLYRKALARQLGVAA, in the assay with c-Kit (peptide 100 μM), the “cKit Kinase Activity (%) (+SD %)” value is given as 31 (6) %. Further, the “Lck Kinase Activity (%) (+SD %)” value with Lck (peptide 100 μM) is listed as 847 (29) %. In the assay with Pim-1 (peptide 100 μM), the “Pim-1 Kinase Activity (%) (+SD %)” value is given as 1 (2) %. In addition, the “Ret Kinase Activity (%) (+SD %)” value with Ret is given as 107 (9) %. Moreover, in the assay with TrkA (peptide 100 μM), the “TrkA Kinase Activity (%) (+SD %)” value is recorded as 16 (2) %.
Take WLRRIKAWLRRIKALNRQLGVAA: the “cKit Kinase Activity (%) (+SD %)” value with c-Kit (peptide 30 μM) is 23 (2) %; with c-Kit (peptide 100 μM), 42 (3) %. Also, the results for the “Lck Kinase Activity (%) (+SD %)” value with Lck (peptide 30 μM) and with Lck (peptide 100 μM) were 130 (1) % and 493 (7) %, respectively. Also, the “Pim-1 Kinase Activity (%) (+SD %)” value with Pim-1 (peptide 30 μM) is on record as 5 (1) %; with Pim-1 (peptide 100 μM), 1 (0) %. Moreover, the “Ret Kinase Activity (%) (+SD %)” value with Ret is on record as 89 (0) %. The figures for the “TrkA Kinase Activity (%) (+SD %)” value with TrkA (peptide 30 μM) and in the assay with TrkA (peptide 100 μM) were 6 (1) % and 17 (2) %, respectively.
